Six molecules from publication doi:10.1101/2023.10.23.563594 (bioRxiv, 2023) can be followed below.

Broadly, the stoichiometry N is a count of units in the complex or per binding partner.

T1: full-length unlabelled RING1B-PCGF4 catalytic dimer (human, UniProt Q99496-1;P35226)
T1 sequence 1: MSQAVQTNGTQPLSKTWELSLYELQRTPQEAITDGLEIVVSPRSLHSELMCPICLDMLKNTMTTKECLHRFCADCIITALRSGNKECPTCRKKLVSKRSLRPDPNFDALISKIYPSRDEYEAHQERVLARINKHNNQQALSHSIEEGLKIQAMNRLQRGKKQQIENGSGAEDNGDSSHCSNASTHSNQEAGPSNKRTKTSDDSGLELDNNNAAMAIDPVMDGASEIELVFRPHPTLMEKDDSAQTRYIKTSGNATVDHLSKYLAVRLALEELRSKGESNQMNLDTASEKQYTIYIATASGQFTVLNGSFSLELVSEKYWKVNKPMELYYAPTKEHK
T1 sequence 2: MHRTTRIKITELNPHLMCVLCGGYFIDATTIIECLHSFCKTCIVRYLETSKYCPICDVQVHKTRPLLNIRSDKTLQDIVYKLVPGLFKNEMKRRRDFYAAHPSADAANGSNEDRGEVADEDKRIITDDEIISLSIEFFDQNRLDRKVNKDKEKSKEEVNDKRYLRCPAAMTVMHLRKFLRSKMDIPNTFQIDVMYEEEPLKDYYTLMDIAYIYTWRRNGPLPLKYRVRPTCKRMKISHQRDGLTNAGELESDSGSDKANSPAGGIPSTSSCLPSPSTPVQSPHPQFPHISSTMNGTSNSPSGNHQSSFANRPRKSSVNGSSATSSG

B1: RING1 and YY1-binding protein (RYBP), full-length wild type, co-expressed in the vPRC1.4 complex (natural protein)
chain: MTMGDKKSPTRPKRQAKPAADEGFWDCSVCTFRNSAEAFKCSICDVRKGTSTRKPRINSQLVAQQVAQQYATPPPPKKEKKEKVEKQDKEKPEKDKEISPSVTKKNTNKKTKPKSDILKDPPSEANSIQSANATTKTSETNHTSRPRLKNVDRSTAQQLAVTVGNVTVIITDFKEKTRSSSTSSSTVTSSAGSEQQNQSSSGSESTDKGSSRSSTPKGDMSAVNDESF
B2: RYBP A63T, co-expressed with RING1B and PCGF4 (natural protein)
chain: B1 chain with A63T
B3: RYBP full-length, 15N- or 13C/15N-labelled, from E. coli (natural protein)
chain: B1 chain
modifications: uniform 15N or 13C/15N isotope labelling
B4: RYBP Q69K, co-expressed with RING1B and PCGF4 (natural protein)
chain: B1 chain with Q69K
B5: E3 ubiquitin ligase subunit RING1B, full-length, co-expressed in the vPRC1.4 complex (natural protein)
chain: T1 sequence 1
B6: Polycomb group ring-finger subunit PCGF4, full-length, co-expressed in the vPRC1.4 complex (natural protein)
chain: T1 sequence 2

Changes are numbered by the printed parent chain. Names may count otherwise.

In test [1] the target is B5. The test can be described thus: cross-linking.
Test [2] addresses B6. Kind of test: cross-linking.
Test [3] deals with B5. Kind of test: pull-down.
Test [4] has as its target B6. Kind of test: pull-down.
Test [5] deals with T1, full-length unlabelled RING1B-PCGF4 …. Kind of test: pull-down.
Test [6] addresses B1. The test can be described thus: SEC-MALS.
Test [7] addresses B5. The test can be described thus: SEC-MALS. For orientation: Size exclusion chromatography separates by hydrodynamic size, large species first.

Turning to B1, the binding result in test [1] and in test [2] was “binds” throughout.
Turning to B2, the binding result in test [3] and in test [4] was “binds” throughout.
Regarding B3, in test [5], the binding result is “binds”.
Regarding B4, the binding result in test [3] and in test [4] was “binds” each time.
Regarding B5, the “stoichiometry N” value in test [6] is 1.
For the molecule B6, the “stoichiometry N” value in test [6] and in test [7] was 1 in each case.
